Consider two molecules from patent US10669350B2, “Antigen-binding constructs that bind to and inhibit catalase and/or superoxide dismutase as well as pharmaceutical compositions containing them for tumor therapy” (priority 2015, dated 2020).

Entries after “also recorded” stand apart in the source; their conditions may differ.

Assay [1] concerns human neuroblastoma line SHEP. Description: Standard preparation for apoptosis induction in SHEP cells (percentage of apoptotic cells). The class given is cell-based. On the procedure: (§1) The experiments shown in FIG. 13-24 were carried out with a standard preparation for the apoptosis induction that is based on the method performed in Heinzelmann and Bauer 2010. The tumor cells used were taken from an optimally growing semi-sealed culture, centrifuged and placed in fresh medium. The test was performed in 96-well cell culture plates with 12 500 MKN-45 cells/100 μl medium or 10 000 SHEP cells/100 μl medium. MKN-45 cells grow in suspension, SHEP cells are adherent. The tests with SHEP cells were started as soon as the cells had grown on. By adding increasing concentrations of single domain VHH fragments that either inhibit catalase or SOD the protection of the tumor cells from their own ROS signaling was annulled so that based on the cell-owned extracellular superoxide anion production the NO/peroxynitrite signal path and the HOCl path (with MKN-45 cells) or in case of the SHEP cells only the NO/peroxynitrite path could start when the cells were incubated at 37° C. The analysis of the signal paths was carried out by the application of inhibitors of the NADPH oxidase (AEBSF), the HOCl scavenger taurine, the peroxynitrite scavenger FeTPPS and the singlet oxygen scavenger histidine. In some experiments for comparison instead of the single domain VHH fragments either recombinant Fab fragments or monoclonal antibodies were applied. This is indicated in the respective illustrations.
Double preparations were examined at the times shown in the text by means of phase contrast reverse microscopy for the percentage of apoptotic cells. Here, the classical apoptosis criteria described and documented in Heinzelmann and Bauer 2010 such as condensation of the nucleus, fragmentation of the nucleus, and membrane blebbing were used. Per single preparation at least 250 randomly selected cells were examined for the presence of apoptosis features.
10 000 cells of the human neuroblastoma line SHEP per 100 μl medium were mixed with the given concentrations of the catalase-neutralizing single domain VHH fragment aCATcb0972, the SOD-neutralizing single domain VHH fragment aSOD0989, the SOD-binding but not neutralizing single domain VHH fragment aSODcb991 and the hybrid molecule aCATaSOD and incubated for 5 hours at 37° C., 5% CO2, before percentages of apoptotic cells were determined.
10 000 cells of the human neuroblastoma line SHEP per 100 μl medium were mixed with the given concentrations of the SOD-neutralizing single domain VHH fragment aSOD0989. Parallel preparations received 20 μM or 100 μM of the NO donor sodium nitroprusside or were incubated without a further additive. After 5 hours at 37° C., 5% CO2 the percentages of apoptotic cells were determined.

Assay [2] addresses T1, human SOD1 (Homo sapiens, UniProt P00441). Description: Check for inhibition (neutralization) of SOD, ROS-dependent apoptosis induction and HOCl control trial. The class given is cell-based. Further details: endogenous in cells; host or cells: MKN-45 human gastric carcinoma cells. The source says:
Thus, the inhibition of the SOD mediated by single domain VHH or Fab fragments (comparison) can be determined by the fact that the apoptosis induction of tumor cells by exogenously added HOCl is employed as the test system. HOCl in a concentration depending manner induces apoptosis that is based on the interaction between HOCl and superoxide anions that results in the formation of aggressive hydroxyl radicals (Bauer G. HOCl-dependent singlet oxygen and hydroxyl radical generation modulate and induce apoptosis of malignant cells. Anticancer Res 33: 3589-3602, 2013). […] That is, the neutralizing effect of single domain VHH or Fab fragments can be determined by checking whether the inhibition of the apoptosis is abolished again by the single domain VHH or Fab fragments to be tested. The quantitative employment of said test system requires linking several simple steps the skilled person is familiar with. In the first step the concentration of commercially available HOCl (or sodium hypochlorite that sufficiently forms HOCl in medium) is determined that generates a significant quantifiable apoptosis signal within a reasonable trial time (1-2 hours). […] As soon as the first two steps have been satisfactorily performed there can take place the actual test of the inhibiting effect of the single domain VHH or Fab fragments. For that, selected concentrations of the fragments to be tested are pre-incubated for 20 minutes with the optimal concentration of SOD determined in advance in step #2. Subsequently, said mixture is added to the test cells. Thereafter, HOCl is added and the apoptosis induction is determined. […]
The preparation was by immunizing alpacas with human SOD1 (SOD1=Cu/ZnSOD [EC 1.15.1.1] purified from human erythrocytes, obtained from Sigma (Schnelldorf), catalogue number S 9636) under supervision of a veterinary, obtaining RNA from the B cells of the animals, reverse transcription, cloning in E. coli and isolation via the phage display technology. […] In the following, this is expressed as ROS-dependent apoptosis induction. […]

Assay [3] addresses T1, human SOD1. Description: ELISA selection of clones binding to human SOD1. The source says:
The preparation was by immunizing alpacas with human SOD1 (SOD1=Cu/ZnSOD [EC 1.15.1.1] purified from human erythrocytes, obtained from Sigma (Schnelldorf), catalogue number S 9636) under supervision of a veterinary, obtaining RNA from the B cells of the animals, reverse transcription, cloning in E. coli and isolation via the phage display technology. […] In a second run, by employing the cell culture system described by Heinzelmann and Bauer (Multiple protective functions of catalase against intercellular apoptosis-inducing ROS signaling of human tumor cells, Biol. Chem. 391, 675-693, 2010) it was checked which of the single domain VHH fragments binding to SOD actually results in an inhibition of SOD, what is expressed in the tumor system used as ROS-dependent apoptosis induction in the cells, since by the inhibition of SOD the concentration of free superoxide anions dramatically increases due to the absence of the enzymatic dismutation and results in a parallel indirect inhibition of catalase. In the following, this is expressed as ROS-dependent apoptosis induction. In a further control trial the specific inhibition of SOD by recombinant single domain VHH fragments was verified by the fact that the increasing effect of these fragments on apoptosis induction by exogenously added HOCl was examined, as described in Bauer 2013 (HOCl-dependent singlet oxygen and hydroxyl radical generation modulate and induce apoptosis of malignant cells. Anticancer Res 33: 3589-3602, 2013).

Assay [4] deals with human colon carcinoma xenotransplant. Description: Growth of human colon carcinoma xenotransplant on immunocompromised mice. The class given is in vivo. As for the experimental part:
The experiments carried out in FIGS. 28A and 28B and FIG. 29 were carried out by a commercial certified supplier (Oncotest GmbH, Freiburg). Here, xenotransplants of a human colon carcinoma were implanted in suitable mice. After the tumors had grown on and a certain minimum size had been achieved, the therapeutic test was started. aSODcb0989 in the indicated doses (mg/kg body weight) or buffer were intravenously applied twice a week. Also, the tumor sizes were measured twice a week by means of a caliber.

Assay [5] concerns MKN-45 gastric carcinoma cells. Description: Standard preparation for autocrine ROS-controlled apoptosis induction in tumor cells (percentage of apoptotic cells). In kind it is cell-based, human. On the procedure: as §1
Double preparations were examined at the times shown in the text by means of phase contrast reverse microscopy for the percentage of apoptotic cells. Here, the classical apoptosis criteria described and documented in Heinzelmann and Bauer 2010 such as condensation of the nucleus, fragmentation of the nucleus, and membrane blebbing were used. Per single preparation at least 250 randomly selected cells were examined for the presence of apoptosis features. […]

T1 sequence (P00441 2-154 limits assumed): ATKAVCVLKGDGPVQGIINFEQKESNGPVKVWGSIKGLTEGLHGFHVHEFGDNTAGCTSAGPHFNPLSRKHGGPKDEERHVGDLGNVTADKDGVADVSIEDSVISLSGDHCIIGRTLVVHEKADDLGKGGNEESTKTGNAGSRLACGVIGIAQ

B1: aSODcb0991: single domain VHH fragment binding to human SOD1, but not neutralizing; SEQ ID NO: 16 (protein)
VHH: MAQVQLVESGGGIVQPGGSLRLSCVASESISDIDAMYWHRQAPGKRRELVAGITNDGTEYFADSVKGRFAISRDNTKSSLYLQMNSLKLEDTAMYYCATLPNPPPGYWGQGTQVTVSSKKKHHHHHH
modifications: SOD binding
For B1, the “concentration required for apoptosis-inducing effect relative to the neutralizing single domain VHH fragment” value in assay [1] (5 hours) is 10^6 fold. For the same molecule, the “apoptosis induction in SHEP cells” value in assay [1] (5 hours at 37° C., 5% CO2) is on record as “at high concentrations also achieves an apoptosis-inducing effect; also recorded: weak but significant apoptosis induction”. Moreover, the “neutralization (inhibition) of human SOD1” value with human SOD1 [2] is “do not neutralize it”. The “binding to human SOD1” value with human SOD1 [3] was “bind to human SOD1”.

B2: aSODcb0989: single domain VHH fragment that binds to and neutralizes human SOD1; SEQ ID NO: 15 (protein)
VHH: MAQVQLVESGGGLVQSGGSLTLSCTASGFTISNYPMTWVRQAPGKGLEWVSRINSGGDRTLYADSVKGRFTVSRDNARNTMYLQMNNLKPEDTGLYFCADSGAGWRYWGQGTQVTVSSKKKHHHHHH
modifications: SOD binding
With B2, the “tumor growth versus control group” value in assay [4] (0.03 mg/kg intravenously twice a week) is “there does not result a recognizable difference to the controls”; in assay [4] (0.3 mg/kg intravenously twice a week), “very clearly differs from the control group”; in assay [4] (0.9 mg/kg intravenously twice a week), “in some animals the growth inhibition is enhanced, whereas in other animals there is caused the contrary”. In the assay with human SOD1 [2], the “neutralization (inhibition) of human SOD1” value is “neutralizes human SOD1”. Also, the “binding to human SOD1” value with human SOD1 [3] is on record as “binds to”. The “apoptosis induction in the presence of peroxynitrite scavenger FeTPPS” value in assay [5] (25 μM FeTPPS) is “complete inhibition by means of FeTPPS”. Besides, in assay [5] (50 mM taurine), the “apoptosis induction in the presence of HOCl scavenger taurine” value is “disappearance of an inhibition by taurine”. The “apoptosis induction in combination with 0.005 pg/ml of the complementary single domain VHH fragment” value in assay [5] (3.5 hours, FIG. 18) is on record as “noteworthy synergistic effect”. In addition, the optimum conc. was 1.2 pg/mL in assay [5] (Table 1, concentration necessary for optimum apoptosis induction, taken from FIGS. 13A, 13B, 15A, 15B, 20) and 0.35 pg/mL in assay [5] (Table 2, FIG. 20 experiment, 3.5 hours). Moreover, the “ROS signaling path induced” value in assay [5] (inhibitor analysis) is on record as “exclusively via the NO/peroxynitrite path”.
